Assay results published in publication PMC3600295.

Key:
human alpha-thrombin [1] = target: T1, human alpha-thrombin (Homo sapiens, UniProt P00734;P00734 315-363;364-622); experiment: potentiometric aptasensor; PANI transducer; LOD 71 nM, 2.97 mV/decade (not a Kd); PBS listed as reagent; salt, pH and temperature of the potentiometric assay not given in the material
human alpha-thrombin [2] = target: T1, human alpha-thrombin; experiment: potentiometric aptasensor; SWCNT transducer; LOD 80 nM, 8.03 mV/decade (not a Kd); PBS listed as reagent; salt, pH and temperature of the potentiometric assay not given in the material

Binder	binding result (human alpha-thrombin [1])	binding result (human alpha-thrombin [2])
GGTTGGTGTGGTTGG (structured_DNA, 5'-SH, coupled to polyaniline) [TBA 15-mer, 5'-SH (PANI sensor)]	binds	
GGTTGGTGTGGTTGG (structured_DNA, 5'-NH2, coupled to SWCNT carboxyl groups) [TBA 15-mer, 5'-NH2 (SWCNT sensor)]		binds
